The target in experiment [1] is T1, GDF11 (Homo sapiens, UniProt O95390).
T1 sequence (O95390 299-407): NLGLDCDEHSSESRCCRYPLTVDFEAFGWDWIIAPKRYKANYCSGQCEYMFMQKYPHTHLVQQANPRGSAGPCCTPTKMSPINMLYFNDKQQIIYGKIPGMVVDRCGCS
Put plainly: A-204 reporter gene assay, pGL3(CAGA)12 luciferase. Set-up: key to GDF11 Inhibition Activity: +: Poor activity (roughly 1 × 10^−6 KI); ++: Moderate activity (roughly 1 × 10^−7 KI); +++: Good (wild-type) activity (roughly 1 × 10^−8 KI); ++++: Greater than wild-type activity. The note with it: Table 9; cell-based A-204 assay. The experiment is classed as cell-based. An excerpt: (§1) An A-204 reporter gene assay was used to evaluate the effects of ActRIIB-Fc proteins and ActRIIB variant Fc fusion polypeptides on signaling by GDF-11 and activin A. Cell line: human rhabdomyosarcoma (derived from muscle). Reporter vector: pGL3(CAGA)12 (described in Dennler et al, 1998, EMBO 17: 3091-3100). The CAGA12 motif is present in TGF-beta responsive genes (e.g., PAI-1 gene), so this vector is of general use for factors signaling through SMADs.
(§2) Day 1: Split A-204 cells into 48-well plate.
(§3) Day 2: A-204 cells transfected with 10 ug pGL3(CAGA)12 or pGL3(CAGA)12(10 ug)+pRLCMV (1 pg) and Fugene.
(§4) Day 3: Add factors (diluted into medium+0.1% BSA). Inhibitors need to be preincubated with factors for 1 hr before adding to cells. Six hrs later, cells were rinsed with PBS and lysed.
(§5) This is followed by a luciferase assay.
(§6) Activity of ActRIIB-Fc proteins and ActRIIB variant Fc fusion polypeptides was tested in a cell-based assay as described above. Some variants were tested in different C-terminal truncation constructs. As discussed above, truncations of five or fifteen amino acids caused reduction in activity. […]

The target of a further experiment is T2, GDF8 (Homo sapiens, UniProt O14793).
T2 sequence (O14793 267-375): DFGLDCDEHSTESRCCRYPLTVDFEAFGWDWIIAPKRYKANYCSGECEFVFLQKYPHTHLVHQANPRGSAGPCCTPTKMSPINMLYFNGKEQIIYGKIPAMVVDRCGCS
Put plainly: Biacore assay, ActRIIB-Fc captured with anti-hFc antibody, ligand injected (Example 8). The note with it: GDF8; Table 10. The experiment is classed as binding. The protocol:
(§7) Binding of certain ActRIIB-Fc proteins and ActRIIB variant Fc fusion polypeptides to ligands was tested in a Biacore™ assay.
(§8) The ActRIIB-Fc variants or wild-type protein were captured onto the system using an anti-hFc antibody. Ligands were injected and flowed over the captured receptor proteins.
On the technique in general: SPR reads the build-up and loss of mass on a sensor chip optically.

In experiment [2] the target is T3, activin A (Homo sapiens, UniProt P08476).
T3 sequence (P08476 311-426): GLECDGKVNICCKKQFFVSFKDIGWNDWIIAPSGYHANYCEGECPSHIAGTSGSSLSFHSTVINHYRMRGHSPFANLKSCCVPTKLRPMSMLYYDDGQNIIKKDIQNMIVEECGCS
Put plainly: A-204 reporter gene assay, pGL3(CAGA)12 luciferase. Set-up: key to Activin Inhibition Activity: +: Poor activity (roughly 1 × 10^−6 KI); ++: Moderate activity (roughly 1 × 10^−7 KI); +++: Good (wild-type) activity (roughly 1 × 10^−8 KI); ++++: Greater than wild-type activity. Particulars: Table 9; cell-based A-204 assay. It counts as cell-based.
From the text: as §1, §2, §3, §4, §5, §6
On the technique in general: Reporter assays use an easily measured gene product as a stand-in for the process of interest.

Experiment [3] concerns the target T3, activin A. Put plainly: Biacore assay, ActRIIB-Fc captured with anti-hFc antibody, ligand injected (Example 8). The experiment is classed as binding. Particulars: Activin A; Table 10. The protocol:
as §7, §8

In a further experiment the target is T4, ActA (Homo sapiens, UniProt P08476).
T4 sequence (P08476 311-426): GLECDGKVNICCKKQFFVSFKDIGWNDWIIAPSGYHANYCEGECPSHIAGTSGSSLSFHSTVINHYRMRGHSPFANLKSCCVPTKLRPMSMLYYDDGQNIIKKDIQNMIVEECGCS
Set-up: key to ActA binding relative to WT: *: No observed binding; −−: <⅕ WT binding; −: ~½ WT binding; +: WT; ++: <2x increased binding; +++: ~5x increased binding; ++++: ~10x increased binding; +++++: ~40x increased binding. The note with it: Table 11, reproduced from WO2006/012627; cited from earlier work.

The target in experiment [4] is T1, GDF11. Set-up: key: *: No observed binding; −−: <⅕ WT binding; −: ~½ WT binding; +: WT; ++: <2x increased binding; +++: ~5x increased binding; ++++: ~10x increased binding; +++++: ~40x increased binding. The note with it: Table 11, reproduced from WO2006/012627; cited from earlier work.

B1: ActRIIB(K74A 20-134)-hFc: ActRIIB-Fc variant with K74A substitution, residues 20-134 (protein)
chain: GRGEAETRECIYYNANWELERTNQSGLERCEGEQDKRLHCYASWRNSSGTIELVAKGCWLDDFNCYDRQECVATEENPQVYFCCCEGNFCNERFTHLPEAGGPEVTYEPPPTAPTGGGTHTCPPCPAPELLGGPSVFLFPPKPKDTLMISRTPEVTCVVVDVSHEDPEVKFNWYVDGVEVHNAKTKPREEQYNSTYRVVSVLTVLHQDWLNGKEYKCKVSNKALPVPIEKTISKAKGQPREPQVYTLPPSREEMTKNQVSLTCLVKGFYPSDIAVEWESNGQPENNYKTTPPVLDSDGSFFLYSKLTVDKSRWQQGNVFSCSVMHEALHNHYTQKSLSLSPGK
Consider B1, for which the “GDF11 Inhibition Activity” value with GDF11 [1] is recorded as “++++”. The “Koff” value with GDF8 is 2.03e-05 s⁻¹. The “Activin Inhibition Activity” value in the experiment with activin A [2] is on record as “++++”.

B2: ActRIIB(P129S, P130R 20-134)-hFc: ActRIIB-Fc variant with P129S and P130R substitutions, residues 20-134 (protein)
chain: GRGEAETRECIYYNANWELERTNQSGLERCEGEQDKRLHCYASWRNSSGTIELVKKGCWLDDFNCYDRQECVATEENPQVYFCCCEGNFCNERFTHLPEAGGPEVTYEPSRTAPTGGGTHTCPPCPAPELLGGPSVFLFPPKPKDTLMISRTPEVTCVVVDVSHEDPEVKFNWYVDGVEVHNAKTKPREEQYNSTYRVVSVLTVLHQDWLNGKEYKCKVSNKALPVPIEKTISKAKGQPREPQVYTLPPSREEMTKNQVSLTCLVKGFYPSDIAVEWESNGQPENNYKTTPPVLDSDGSFFLYSKLTVDKSRWQQGNVFSCSVMHEALHNHYTQKSLSLSPGK
For B2, the “Koff” value with activin A [3] was 0.000417 s⁻¹; with GDF8, 0.00018 s⁻¹.

B3: R64 P129S P130A 20-134: ActRIIB-Fc variation R64 P129S P130A, amino acids 20-134 of SEQ ID NO:1 (protein)
chain: GRGEAETRECIYYNANWELERTNQSGLERCEGEQDKRLHCYASWRNSSGTIELVKKGCWLDDFNCYDRQECVATEENPQVYFCCCEGNFCNERFTHLPEAGGPEVTYEPSATAPTGGGTHTCPPCPAPELLGGPSVFLFPPKPKDTLMISRTPEVTCVVVDVSHEDPEVKFNWYVDGVEVHNAKTKPREEQYNSTYRVVSVLTVLHQDWLNGKEYKCKVSNKALPVPIEKTISKAKGQPREPQVYTLPPSREEMTKNQVSLTCLVKGFYPSDIAVEWESNGQPENNYKTTPPVLDSDGSFFLYSKLTVDKSRWQQGNVFSCSVMHEALHNHYTQKSLSLSPGK
B3: the “GDF11 Inhibition Activity” value with GDF11 [1] is reported as “+++ (Good (wild-type) activity (roughly 1 × 10^−8 KI))”. For the same molecule, the “Activin Inhibition Activity” value with activin A [2] is given as “+++ (Good (wild-type) activity (roughly 1 × 10^−8 KI))”.

B4: WT (64A): soluble ActRIIB-Fc, wild type with 64A, as reported in WO2006/012627 (protein)
chain: SGRGEAETRECIYYNANWELERTNQSGLERCEGEQDKRLHCYASWANSSGTIELVKKGCWLDDFNCYDRQECVATEENPQVYFCCCEGNFCNERFTHLPEA
modifications: left off: a dimerising Fc or GST
Take B4: the “ActA binding relative to WT” value with ActA is listed as “(+)”. Further, the “GDF11 binding relative to WT” value with GDF11 [4] was “(+)”.

B5: R64 A24N 20-119: ActRIIB-Fc variation R64 A24N, amino acids 20-119 of SEQ ID NO:1 (protein)
chain: GRGENETRECIYYNANWELERTNQSGLERCEGEQDKRLHCYASWRNSSGTIELVKKGCWLDDFNCYDRQECVATEENPQVYFCCCEGNFCNERFTHLPEA
modifications: Fc fusion partner not cited
Regarding B5, the “GDF11 Inhibition Activity” value in the experiment with GDF11 [1] is reported as “++ (Moderate activity (roughly 1 × 10^−7 KI))”. Also, in the experiment with activin A [2], the “Activin Inhibition Activity” value is “++ (Moderate activity (roughly 1 × 10^−7 KI))”.

B6: R64 A24N K74A 20-119: ActRIIB-Fc variation R64 A24N K74A, amino acids 20-119 of SEQ ID NO:1 (protein)
chain: GRGENETRECIYYNANWELERTNQSGLERCEGEQDKRLHCYASWRNSSGTIELVAKGCWLDDFNCYDRQECVATEENPQVYFCCCEGNFCNERFTHLPEA
modifications: Fc fusion partner not cited
As to B6, in the experiment with GDF11 [1], the “GDF11 Inhibition Activity” value was “+ (Poor activity (roughly 1 × 10^−6 KI))”. Besides, in the experiment with activin A [2], the “Activin Inhibition Activity” value is listed as “+ (Poor activity (roughly 1 × 10^−6 KI))”.

B7: A64 20-134: ActRIIB-Fc with alanine at position 64, amino acids 20-134 of SEQ ID NO:1 (protein)
chain: GRGEAETRECIYYNANWELERTNQSGLERCEGEQDKRLHCYASWANSSGTIELVKKGCWLDDFNCYDRQECVATEENPQVYFCCCEGNFCNERFTHLPEAGGPEVTYEPPPTAPT
modifications: Fc fusion partner not cited
As for B7, the “GDF11 Inhibition Activity” value with GDF11 [1] is recorded as “+ (Poor activity (roughly 1 × 10^−6 KI))”. Further, in the experiment with activin A [2], the “Activin Inhibition Activity” value is recorded as “+ (Poor activity (roughly 1 × 10^−6 KI))”.

B8: R64 L79P K74A 20-134: ActRIIB-Fc variation R64 L79P K74A, amino acids 20-134 of SEQ ID NO:1 (protein)
chain: GRGEAETRECIYYNANWELERTNQSGLERCEGEQDKRLHCYASWRNSSGTIELVAKGCWPDDFNCYDRQECVATEENPQVYFCCCEGNFCNERFTHLPEAGGPEVTYEPPPTAPT
modifications: Fc fusion partner not cited
On to B8, for which, in the experiment with GDF11 [1], the “GDF11 Inhibition Activity” value is recorded as “+ (Poor activity (roughly 1 × 10^−6 KI))”. Moreover, the “Activin Inhibition Activity” value in the experiment with activin A [2] is listed as “+ (Poor activity (roughly 1 × 10^−6 KI))”.

B9: R64 L79P 20-134: ActRIIB-Fc variation R64 L79P, amino acids 20-134 of SEQ ID NO:1 (protein)
chain: GRGEAETRECIYYNANWELERTNQSGLERCEGEQDKRLHCYASWRNSSGTIELVKKGCWPDDFNCYDRQECVATEENPQVYFCCCEGNFCNERFTHLPEAGGPEVTYEPPPTAPT
modifications: Fc fusion partner not cited
B9: the “GDF11 Inhibition Activity” value with GDF11 [1] is “+ (Poor activity (roughly 1 × 10^−6 KI))”. Moreover, the “Activin Inhibition Activity” value in the experiment with activin A [2] is “+ (Poor activity (roughly 1 × 10^−6 KI))”.

B10: R64N 20-134: ActRIIB-Fc variation R64N, amino acids 20-134 of SEQ ID NO:1 (protein)
chain: GRGEAETRECIYYNANWELERTNQSGLERCEGEQDKRLHCYASWNNSSGTIELVKKGCWLDDFNCYDRQECVATEENPQVYFCCCEGNFCNERFTHLPEAGGPEVTYEPPPTAPT
modifications: Fc fusion partner
Take B10: the “GDF11 Inhibition Activity” value in the experiment with GDF11 [1] is “+ (Poor activity (roughly 1 × 10^−6 KI))”. Further, the “Activin Inhibition Activity” value with activin A [2] is “+ (Poor activity (roughly 1 × 10^−6 KI))”.

B11: R64 20-129: ActRIIB-Fc R64, amino acids 20-129 of SEQ ID NO:1 (protein)
chain: GRGEAETRECIYYNANWELERTNQSGLERCEGEQDKRLHCYASWRNSSGTIELVKKGCWLDDFNCYDRQECVATEENPQVYFCCCEGNFCNERFTHLPEAGGPEVTYEPP
modifications: Fc fusion partner not cited
As for B11, in the experiment with GDF11 [1], the “GDF11 Inhibition Activity” value is “+++ (Good (wild-type) activity (roughly 1 × 10^−8 KI))”. Moreover, the “Activin Inhibition Activity” value with activin A [2] is “+++ (Good (wild-type) activity (roughly 1 × 10^−8 KI))”.
